In patent US9395368B2, “Methods, agents and peptides for inducing an immune response to matrix metalloproteinase-2 expressing tumors” (New York University, priority 2010, dated 2016):

Assays:
Type in all cases: cell-based, human
[1] = test system: Cord blood-derived CD4+/CD25- cells; assay: Priming of naive CD4+ T cells to Melan-A/MART-1 or NY-ESO-1 with DCs pre-incubated with MMP-2
Description: (A) Cord blood-derived CD4^+/CD25^− cells were stimulated with autologous poly(I:C)-matured DCs pulsed with overlapping peptides spanning either Melan-A/MART-1 or NY-ESO-1. Prior to poly(I:C) addition, DCs were incubated with or without MMP-2 (active or heat-inactivated) for 1 h. MMP-2 enzymatic activity was controlled (FIG. 13C-D). After 15 days, CD4^+ T cells were stimulated with the Melan-A/MART-1 or NY-ESO-1 peptide pools (2 μM) for 6 h before intracellular staining of cytokines. Percentages of antigen-specific CD4^+ T cells, secreting indicated cytokines, are represented for all donors. (B) Contour plots showing percentages of cytokine-producing CD4^+ T cells are shown for representative donor CB45 primed to Melan-A/MART-1. Percentage of secreting cells upon peptide stimulation was considered specific/positive when it exceeded by more than twofold the background (cytokine-secreting cells in the absence of stimulation) and had more than 0.5% of responding cells (after background subtraction) for at least one cytokine. For each cytokine, 2 paired t-tests were used to compare priming in the presence of active MMP-2 to either priming in the absence of active MMP-2 or with HI MMP-2. The Bonferroni adjustment was used for multiple comparisons. P values≦0.025 (*) were considered statistically significant using a Bonferroni correction for 2 comparisons.
(§1) T Cell culture, stimulation and priming. Peripheral blood mononuclear cells (PBMCs) were purified from healthy donor-(HD) or cord blood donor-(CB) derived buffy coats (New York Blood Center) by Ficoll-Paque Plus (GE Healthcare) centrifugation. CD4^+/CD25^− cells were enriched (>90%) by magnetic cell sorting (Miltenyi Biotec) and primed/stimulated for 12-15 days either with irradiated (35Gy) autologous CD4^− cells or with autologous mature DCs in IMDM (GIBCO) supplemented with 1 mM HEPES (Life Technologies), 2 mM L-glutamine (Sigma), streptomycin (100 UI/mL)/penicillin (100 μg/mL) (Sigma) and 5% heat inactivated pooled human serum (PHS; Valley Biomedical) in the presence of rhIL-2 (10 UI/mL) and IL7 (5 ng/mL) (R&D Systems). Antigen presenting cells (CD4^− cells or DCs) were loaded either with peptides (2 μM) or with the MMP-2 protein (10 μg/mL) for 2 and 5 h, respectively. DCs were matured using the TLR3 agonist poly(I:C) at 5 μg/mL/10^6 DCs (Amersham). To generate T cell clones, we originally relied on our published methodology (Godefroy et al., 2006; Godefroy et al., 2007; the entire contents of each of which is incorporated herein by reference), involving enrichment of IFNγ-secreting cells upon short-term culture and peptide stimulation to generate MMP-2 responsive clones. Briefly, CD4^+ T cells were stimulated by CD4^− cells irradiated and pulsed with peptides for 12 days in the presence of rhIL-2 and rhIL-7. CD4^+ T cells were then restimulated with peptides for 3 hours before capturing IFNγ-secreting specific cells using a bispecific antibody coating T cells and capturing produced IFNγ. Positive cells were purified magnetically before being cloned. Although MMP-2-specific cells could be isolated, it was realized that IFNγ secretion was marginal compared to their secretion of IL-4 and TNFα. IFNγ-secreting cells in response to MMP-2 peptide pool were enriched by cytokine-guided magnetic cell sorting (Miltenyi Biotec) as described above and cloned the following day by limiting dilution in the presence of irradiated allogeneic PBMCs, 1 μg/mL phytohemagglutinin-L (Sigma) and 150 UI/mL rhIL-2. Tumor infiltrating lymphocytes (TILs) were provided by Pr. F. Jotereau and B. Dréno. They were obtained from tumor-invaded lymph nodes of melanoma patients (stage Mb) and expanded ex vivo. These patients received autologous TILs and IL-2 infusions in a clinical trial (Labarriere et al., 2002). This protocol was approved by the Institutional Ethics Committee and registered with regulatory state authority in France (Nantes). […]

[2] = test system: Cord blood-derived CD4+/CD25- cells; assay: Priming of naive cord blood CD4+ T cells with autologous CD4- cells loaded with different sources of MMP-2; details: for percentage of MMP-2-specific CD4+ T cells secreting IL-4, mean: 11 cord blood donors, 15 days after priming, after background subtraction; for mean of the individual differences in IL-4 secreting cells versus priming with active MMP-2: paired within donors
Description: Cord blood-derived CD4^+/CD25^− cells from 11 donors were stimulated with irradiated autologous CD4^− cells loaded either with active MMP-2, heat-inactivated (HI) MMP-2 or with MMP-2 pre-incubated with a specific inhibitor (+I). After 15 days, CD4^+ T cells were stimulated with the MMP-2 peptide pool (2 μM) for 6 h before intracellular staining of cytokines. (A) Density plots representing cytokine production by CD4^+ T cells are shown for the representative donor CB35 primed to MMP-2 either in its active form or after heat-inactivation. Numbers indicate percentages of cytokine-producing cells upon MMP-2 peptide stimulation. […] MMP-2 enzymatic activity was controlled (FIG. 13C-D). For each cytokine, 3 paired t-tests were used to compare active MMP-2 to heat inactivated MMP-2, to MMP-2+I, and to MMP-2 peptides. P values≦0.0167 (*) were considered statistically significant using a Bonferroni correction for 3 comparisons.
T Cell culture, stimulation and priming. Peripheral blood mononuclear cells (PBMCs) were purified from healthy donor-(HD) or cord blood donor-(CB) derived buffy coats (New York Blood Center) by Ficoll-Paque Plus (GE Healthcare) centrifugation. CD4^+/CD25^− cells were enriched (>90%) by magnetic cell sorting (Miltenyi Biotec) and primed/stimulated for 12-15 days either with irradiated (35Gy) autologous CD4^− cells or with autologous mature DCs in IMDM (GIBCO) supplemented with 1 mM HEPES (Life Technologies), 2 mM L-glutamine (Sigma), streptomycin (100 UI/mL)/penicillin (100 μg/mL) (Sigma) and 5% heat inactivated pooled human serum (PHS; Valley Biomedical) in the presence of rhIL-2 (10 UI/mL) and IL7 (5 ng/mL) (R&D Systems). Antigen presenting cells (CD4^− cells or DCs) were loaded either with peptides (2 μM) or with the MMP-2 protein (10 μg/mL) for 2 and 5 h, respectively. DCs were matured using the TLR3 agonist poly(I:C) at 5 μg/mL/10^6 DCs (Amersham). To generate T cell clones, we originally relied on our published methodology (Godefroy et al., 2006; Godefroy et al., 2007; the entire contents of each of which is incorporated herein by reference), involving enrichment of IFNγ-secreting cells upon short-term culture and peptide stimulation to generate MMP-2 responsive clones. Briefly, CD4^+ T cells were stimulated by CD4^− cells irradiated and pulsed with peptides for 12 days in the presence of rhIL-2 and rhIL-7. CD4^+ T cells were then restimulated with peptides for 3 hours before capturing IFNγ-secreting specific cells using a bispecific antibody coating T cells and capturing produced IFNγ. Positive cells were purified magnetically before being cloned. Although MMP-2-specific cells could be isolated, it was realized that IFNγ secretion was marginal compared to their secretion of IL-4 and TNFα. IFNγ-secreting cells in response to MMP-2 peptide pool were enriched by cytokine-guided magnetic cell sorting (Miltenyi Biotec) as described above and cloned the following day by limiting dilution in the presence of irradiated allogeneic PBMCs, 1 μg/mL phytohemagglutinin-L (Sigma) and 150 UI/mL rhIL-2. Tumor infiltrating lymphocytes (TILs) were provided by Pr. F. Jotereau and B. Dréno. They were obtained from tumor-invaded lymph nodes of melanoma patients (stage Mb) and expanded ex vivo. These patients received autologous TILs and IL-2 infusions in a clinical trial (Labarriere et al., 2002). This protocol was approved by the Institutional Ethics Committee and registered with regulatory state authority in France (Nantes).
Intracellular staining T-bet and GATA-3 expression was measured on resting T cells. Cells were fixed (4% paraformaldehyde for 10 min at RT), permeabilized with 0.1% saponin, and stained for intracellular transcription factors. Cytokine production by T cells was also assessed by intracellular staining T cells were stimulated with 2 μM overlapping peptides. After 1 h, 10 μg/mL brefeldin A was added to the cells. […]

[3] = test system: Cord blood-derived CD4+/CD25- cells; assay: Priming of naive CD4+ T cells with active MMP-2-loaded DCs with rhIL-12 or blocking mAb for OX40L or IL-4
Description: […] CD4^+ T cells were then stimulated with the MMP-2 peptide pool (2 μM) for 6 h before intracellular staining of cytokines. Contour plots representing cytokine production by CD4^+ T cells are shown for donor CB31 CD4^+ T cells primed to MMP-2 alone, or together with rhIL-12, anti-OX40L mAb or anti-IL-4 mAb. (B) Percentages of MMP-2-specific CD4^+ T cells, secreting indicated cytokines, are represented for all donors. For each cytokine, 5 paired t-tests were used to compare “no conditioning” versus various conditions. P values≦0.01 (*) were considered statistically significant using a Bonferroni correction for 5 comparisons.
as §1, with “TNFα.” for “TNFα. IFNγ-secreting cells in response to MMP-2 peptide pool were enriched by cytokine-guided magnetic cell sorting (Miltenyi Biotec) as described above and cloned the following day by limiting dilution in the presence of irradiated allogeneic PBMCs, 1 μg/mL phytohemagglutinin-L (Sigma) and 150 UI/mL rhIL-2. Tumor infiltrating lymphocytes (TILs) were provided by Pr. F. Jotereau and B. Dréno. They were obtained from tumor-invaded lymph nodes of melanoma patients (stage Mb) and expanded ex vivo. These patients received autologous TILs and IL-2 infusions in a clinical trial (Labarriere et al., 2002). This protocol was approved by the Institutional Ethics Committee and registered with regulatory state authority in France (Nantes).”
Intracellular staining T-bet and GATA-3 expression was measured on resting T cells. […] Cytokine production by T cells was also assessed by intracellular staining T cells were stimulated with 2 μM overlapping peptides. […]

[4] = rhIL-12 10 ng/mL or mAb 10 μg/mL throughout priming

B1: heat-inactivated MMP-2: MMP-2 enzyme inactivated by heating to 56° C. for 45 min (protein, UniProt P08253 110-660, looked up)
72 kDa type IV collagenase: YNFFPRKPKWDKNQITYRIIGYTPDLDPETVDDAFARAFQVWSDVTPLRFSRIHDGEADIMINFGRWEHGDGYPFDGKDGLLAHAFAPGTGVGGDSHFDDDELWTLGEGQVVRVKYGNADGEYCKFPFLFNGKEYNSCTDTGRSDGFLWCSTTYNFEKDGKYGFCPHEALFTMGGNAEGQPCKFPFRFQGTSYDSCTTEGRTDGYRWCGTTEDYDRDKKYGFCPETAMSTVGGNSEGAPCVFPFTFLGNKYESCTSAGRSDGKMWCATTANYDDDRKWGFCPDQGYSLFLVAAHEFGHAMGLEHSQDPGALMAPIYTYTKNFRLSQDDIKGIQELYGASPDIDLGTGPTPTLGPVTPEICKQDIVFDGIAQIRGEIFFFKDRFIWRTVTPRDKPMGPLLVATFWPELPEKIDAVYEAPQEEKAVFFAGNEYWIYSASTLERGYPKPLTSLGLPPDVQRVDAAFNWSKNKKTYIFAGDKFWRYNEVKKKMDPGFPKLIADAWNAIPDNLDAVVDLQGGGHSYFFKGAYYLKLENQSLKSVKFGSIKSDWLGC
modifications: heat-inactivated
IFNγ, mean of differences relative to priming in the presence of active MMP-2 [1]: 0.21 | IL-2, mean of differences relative to priming in the presence of active MMP-2 [1]: 0.11 | IL-4, mean of differences relative to priming in the presence of active MMP-2 [1]: 1.92 | percentage of MMP-2-specific CD4+ T cells secreting IL-4, mean [2]: 0.45% | mean of the individual differences in IL-4 secreting cells versus priming with active MMP-2 [2]: 1.80

B2: MMP-2+I: MMP-2 enzyme inactivated by addition of the MMP-2 inhibitor III at 100 nM for 20 min (protein, UniProt P08253 110-660, looked up)
72 kDa type IV collagenase: YNFFPRKPKWDKNQITYRIIGYTPDLDPETVDDAFARAFQVWSDVTPLRFSRIHDGEADIMINFGRWEHGDGYPFDGKDGLLAHAFAPGTGVGGDSHFDDDELWTLGEGQVVRVKYGNADGEYCKFPFLFNGKEYNSCTDTGRSDGFLWCSTTYNFEKDGKYGFCPHEALFTMGGNAEGQPCKFPFRFQGTSYDSCTTEGRTDGYRWCGTTEDYDRDKKYGFCPETAMSTVGGNSEGAPCVFPFTFLGNKYESCTSAGRSDGKMWCATTANYDDDRKWGFCPDQGYSLFLVAAHEFGHAMGLEHSQDPGALMAPIYTYTKNFRLSQDDIKGIQELYGASPDIDLGTGPTPTLGPVTPEICKQDIVFDGIAQIRGEIFFFKDRFIWRTVTPRDKPMGPLLVATFWPELPEKIDAVYEAPQEEKAVFFAGNEYWIYSASTLERGYPKPLTSLGLPPDVQRVDAAFNWSKNKKTYIFAGDKFWRYNEVKKKMDPGFPKLIADAWNAIPDNLDAVVDLQGGGHSYFFKGAYYLKLENQSLKSVKFGSIKSDWLGC
modifications: with MMP-2 inhibitor III
percentage of MMP-2-specific CD4+ T cells secreting IL-4, mean [2]: 0.12% | mean of the individual differences in IL-4 secreting cells versus priming with active MMP-2 [2]: 1.47

B3: rhIL-12: recombinant human IL-12 from R&D Systems (protein)
chain 1: RNLPVATPDPGMFPCLHHSQNLLRAVSNMLQKARQTLEFYPCTSEEIDHEDITKDKTSTVEACLPLELTKNESCLNSRETSFITNGSCLASRKTSFMMALCLSSIYEDLKMYQVEFKTMNAKLLMDPKRQIFLDQNMLAVIDELMQALNFNSETVPQKSSLEEPDFYKTKIKLCILLHAFRIRAVTIDRVMSYLNAS
chain 2: IWELKKDVYVVELDWYPDAPGEMVVLTCDTPEEDGITWTLDQSSEVLGSGKTLTIQVKEFGDAGQYTCHKGGEVLSHSLLLLHKKEDGIWSTDILKDQKEPKNKTFLRCEAKNYSGRFTCWWLTTISTDLTFSVKSSRGSSDPQGVTCGAATLSAERVRGDNKEYEYSVECQEDSACPAAEESLPIEVMVDAVHKLKYENYTSSFFIRDIIKPDPPKNLQLKPLKNSRQVEVSWEYPDTWSTPHSYFSLTFCVQVQGKSKREKKDRVFTDKTSATVICRKNASISVRAQDRYYSSSWSEWASVPCS
IFNγ-secreting cells ([3]; doses as low as 1 ng/mL): more | percentages of IL4-secreting T cells ([3]; doses as low as 1 ng/mL): lower percentages | IFNγ secretion by primed MMP-2-specific CD4+ T cells versus no conditioning [3, 4]: more | IL-4 secretion by primed MMP-2-specific CD4+ T cells versus no conditioning [3, 4]: less
